Measured values taken from patent US20240115720A1, “ANTIBODY-PYRROLOBENZODIAZEPINE DERIVATIVE CONJUGATE” (MEMORIAL SLOAN KETTERING CANCER CENTER, priority 2021, published 2024).

Assays:
[1] = tested on: DLL3-positive human small cell lung cancer cell line NCI-H510A; assay: In vivo antitumor effect, NCI-H510A xenograft (Example 22-1); settings: nude mice, 0.2 mg/kg intravenous, single dose, FIG. 26
Description: (§1) Substantially the same protocol as in Example 17 was used.
(§2) The DLL3-positive human small cell lung cancer cell line NCI-H510A (ATCC) was suspended in Matrigel (Corning Inc.), and the cell suspension was subcutaneously inoculated at a dose of 2.3×10^6 cells to the right flank region of each female nude mouse. After the tumors were established, the mice were randomly grouped (6 mice per group). On the day of grouping, each of the 2 antibody-drug conjugates (H2-C8-A-3-Conjugate, H10-O18-A-3-Conjugate), the reference anti-DLL3 antibody-Conjugate (SC16LD6.5), or anti-LPS antibody-Conjugate was intravenously administered at a dose of 0.2 mg/kg to the tail of each mouse. The abscissa depicts the days after administration, and the ordinate depicts estimated tumor volume. The error range depicts a SE value.

[2] = tested on: DLL3-positive human small cell lung cancer cell line NCI-H82; assay: In vivo antitumor effect, NCI-H82 xenograft (Example 22-3); settings: nude mice, 0.4 mg/kg intravenous, single dose, FIG. 28
Description: as §1
as §2, with “NCI-H82” for “NCI-H510A”, “1×10^6” for “2.3×10^6”, “(SC16LD6.5)” for “(SC16LD6.5),”, “0.4” for “0.2”

[3] = tested on: DLL3-positive human small cell lung cancer cell line NCI-H510A; assay: In vivo antitumor effect, NCI-H510A xenograft (Example 17-3); settings: BALB/c nude mice, 0.2 mg/kg intravenous, single dose on Day 15, FIG. 21
Description: The antitumor effects of the antibody-drug conjugates were evaluated using animal models derived from immunodeficient mice by the inoculation of DLL3-positive human tumor cell line cells. 4- to 5-week-old BALB/c nude mice (CAnN. Cg-Foxn1 [nu]/CrlCrlj [Foxn1nu/Foxn1nu], Charles River Laboratories Japan inc.) were acclimatized for 3 days or longer under SPF conditions before use in the experiment. The mice were fed with a sterilized solid diet (FR-2, Funabashi Farms Co., Ltd) and given sterilized tap water (which had been prepared by adding a 5 to 15 ppm sodium hypochlorite solution to tap water). The long diameter and short diameter of the inoculated tumor were measured twice a week using electronic digital calipers (CD-15CX, Mitutoyo Corp.), and the volume of the tumor was then calculated according to the following expression.
Tumor volume (mm^3=½×Long diameter (mm)×[Short diameter (mm)]^2
Each antibody-drug conjugate was diluted with ABS buffer (10 mM acetate buffer, 5% sorbitol, pH 5.5) (Nacalai Tesque, Inc.), and the dilution was intravenously administered at a dose shown in each study to the tail of each mouse. ABS buffer was administered in the same manner as above to a control group (vehicle group). Six mice per group were used in the experiment. The group with the over 3000 mm^3 estimated tumor volume were euthanized at that time. […]

B1: SC16LD6.5: anti-DLL3 ADC: antibody hSC16.56 (SC16) conjugated with drug linker SG3249 by maleimide conjugation (conjugate, chains of the INN, looked up)
VH: QVQLVQSGAEVKKPGASVKVSCKASGYTFTNYGMNWVRQAPGQGLEWMGWINTYTGEPTYADDFKGRVTMTTDTSTSTAYMELRSLRSDDTAVYYCARIGDSSPSDYWGQGTLVTVSS
VL: EIVMTQSPATLSVSPGERATLSCKASQSVSNDVVWYQQKPGQAPRLLIYYASNRYTGIPARFSGSGSGTEFTLTISSLQSEDFAVYYCQQDYTSPWTFGQGTKLEIK
modifications: SG3249 PBD drug-linker (tesirine)
notes: anti-DLL3 ADC: antibody hSC16.56 (SC16) conjugated with drug linker SG3249 by maleimide conjugation
- antitumor effect (estimated tumor volume) [1]: some tumor growth inhibition without tumor regression effect
- antitumor effect (estimated tumor volume) [2]: some tumor growth inhibition without tumor regression effect
- antitumor effect (estimated tumor volume) [3]: some tumor growth inhibition without tumor regression effect
